Measurements: patent US20050209147A1 (Stanford University, published 2005)

B1: P1-RhoA 23-40 fusion domain (Penetratin-1 fused through a glycine to human RhoA amino acids 23-40) (peptide)
peptide: RQIKIWFQNRRMKWKKGIVFSKDQFPEVYVPTVFE
B2: P1-RhoA 75-92 fusion domain (Penetratin-1 fused through a glycine to human RhoA amino acids 75-92) (peptide)
peptide: RQIKIWFQNRRMKWKKGPDTDVILMCFSIDSPDSL

Target: Rho-kinase (ROCK), endogenous in Swiss 3T3 mouse fibroblasts (mouse)
Test: cell-based or functional assay

Binder	dose at which inhibition of LPA-induced stress fibers becomes significant [µM]
B1	10
B2	10
